In patent US20230136252A1 (NANJING LEGEND BIOTECH, published 2023):

Experiments:
[1] = biological target: T1, recombinant mouse GPC2-His (mouse, UniProt Q8BKV1 22-556, limits assumed); test: ELISA, plate coated with 2 ug/mL rmGPC2, VHH-hIgG1Fc detected with HRP goat anti-human IgG, OD450
T1 construct: Bought protein; also called murine GPC2; RD System Cat #2355-GP; not shown: His tag
T1 sequence (looked up): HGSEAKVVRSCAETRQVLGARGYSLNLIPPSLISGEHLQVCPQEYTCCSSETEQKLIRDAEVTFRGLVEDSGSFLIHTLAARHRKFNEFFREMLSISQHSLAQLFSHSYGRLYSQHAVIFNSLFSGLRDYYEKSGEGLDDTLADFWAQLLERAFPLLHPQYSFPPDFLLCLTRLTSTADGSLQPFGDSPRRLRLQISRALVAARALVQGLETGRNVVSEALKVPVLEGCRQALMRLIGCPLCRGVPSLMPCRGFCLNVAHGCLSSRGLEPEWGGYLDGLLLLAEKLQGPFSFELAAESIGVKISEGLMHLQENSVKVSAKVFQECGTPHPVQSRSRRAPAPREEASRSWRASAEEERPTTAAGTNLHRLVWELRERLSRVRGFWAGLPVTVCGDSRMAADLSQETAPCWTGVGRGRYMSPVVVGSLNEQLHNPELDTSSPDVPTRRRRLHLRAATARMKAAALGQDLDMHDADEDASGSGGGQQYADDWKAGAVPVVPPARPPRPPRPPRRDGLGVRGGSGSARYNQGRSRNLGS
Procedure: (§1) To evaluate the specificity of humanized anti-GPC2 VHH5 to recombinant human GPC2 protein, an ELISA-based binding assay was conducted to determine the differential target proteins binding of anti-GPC2 VHH5. Briefly, microplates were coated with 2 μg/mL recombinant human GPC1-His (RD System, Cat #4519-GP), GPC2-His (RD System, Cat #2304-GP), GPC3-His (ACRO, Cat #GP3-H5223), GPC4-Fc (RD System, Cat #9195-GP), GPC5-His (RD System, Cat #2607-G5/CF), GPC6-His (RD System, Cat #2845-GP) or recombinant mouse GPC2-His (RD System, Cat #2355-GP) proteins. Recombinant human protein coated plates were blocked with skim milk. Serially diluted humanized VHH-hIgG1Fc recombinant antibodies were added to each well of the plates and incubated at 4° C. for 1.5 h. Samples were further labelled with HRP-conjugated goat anti human IgG (H+L) secondary antibody (Genescript, Cat #A00166-1) and signal was developed with 3,3′,5,5′-Tetramethylbenzidine (TMB) substrate according to manufacturer's instruction. For the GPC4, VHH-His recombinant antibodies and anti-His tag secondary antibody (Genescript, Cat #A00612) were added to the GPC4-Fc coated plates instead. Optic density at 450 nm was measured by plate reader.

[2] = biological target: T2, recombinant human GPC1-His (human, UniProt P35052 24-530, limits assumed); test: ELISA, plate coated with 2 ug/mL rhGPC1-his, VHH-hIgG1Fc detected with HRP goat anti-human IgG, OD450
T2 construct: Bought protein; also called RD System Cat #4519-GP; not shown: His tag
T2 sequence (looked up): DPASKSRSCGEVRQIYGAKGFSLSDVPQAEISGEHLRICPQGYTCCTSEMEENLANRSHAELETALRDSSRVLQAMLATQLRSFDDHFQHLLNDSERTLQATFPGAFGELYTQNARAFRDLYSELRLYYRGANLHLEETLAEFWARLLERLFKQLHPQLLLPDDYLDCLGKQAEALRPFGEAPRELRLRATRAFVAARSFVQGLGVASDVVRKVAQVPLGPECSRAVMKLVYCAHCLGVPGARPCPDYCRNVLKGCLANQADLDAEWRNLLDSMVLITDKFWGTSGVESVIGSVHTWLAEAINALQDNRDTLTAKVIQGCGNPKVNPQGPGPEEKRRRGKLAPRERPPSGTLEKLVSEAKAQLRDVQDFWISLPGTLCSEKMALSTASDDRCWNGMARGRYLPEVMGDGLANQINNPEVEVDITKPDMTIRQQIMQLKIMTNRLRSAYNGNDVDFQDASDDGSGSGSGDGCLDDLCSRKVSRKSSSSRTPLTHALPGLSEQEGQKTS
Procedure: as §1

[3] = biological target: T3, recombinant human GPC5-His (human, UniProt P78333 25-551, limits assumed); test: ELISA, plate coated with 2 ug/mL rhGPC5-his, VHH-hIgG1Fc detected with HRP goat anti-human IgG, OD450
T3 construct: Bought protein; also called RD System Cat #2607-G5/CF; not shown: His tag
T3 sequence (looked up): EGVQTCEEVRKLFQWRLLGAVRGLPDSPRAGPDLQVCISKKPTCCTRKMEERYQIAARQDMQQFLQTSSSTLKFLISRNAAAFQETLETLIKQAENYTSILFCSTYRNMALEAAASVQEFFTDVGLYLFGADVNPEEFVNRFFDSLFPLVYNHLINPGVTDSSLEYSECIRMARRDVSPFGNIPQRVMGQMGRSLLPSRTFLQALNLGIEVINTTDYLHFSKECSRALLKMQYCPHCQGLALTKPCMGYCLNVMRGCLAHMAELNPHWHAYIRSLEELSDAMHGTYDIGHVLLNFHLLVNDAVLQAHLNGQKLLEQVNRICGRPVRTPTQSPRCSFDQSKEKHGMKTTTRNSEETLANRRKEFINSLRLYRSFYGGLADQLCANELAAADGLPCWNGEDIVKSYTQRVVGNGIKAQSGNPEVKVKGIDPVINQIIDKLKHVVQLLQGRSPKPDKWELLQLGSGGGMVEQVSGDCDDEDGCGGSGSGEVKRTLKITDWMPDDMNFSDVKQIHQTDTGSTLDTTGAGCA
Procedure: as §1

Measured: binding result

B1: AS79236VH6-hIgG1Fc (Fc fusion)
chain: EVQLVESGGGLVQPGGSLRLSCAVSGYTYSSYCMAWFRQAPGKGLEGVASIDAGGRTTYVDSVKGRFTISKDNAKNSLYLQMNSLRAEDTAMYYCAVDVRTRCGGTWDGEAVYFPYWGQGTLVTVSS
notes: also called anti-GPC2 VHH-hIgG1Fc; not shown: human IgG1 Fc fragment (hIgG1Fc)
no binding (tested: about 300 nM): all assays above

B2: AS70950VH6-hIgG1Fc (Fc fusion)
chain: EVQLVESGGGLVQPGGSLRLSCAISEFTYKNTCVGWFRQAPGKGREGVAAIDSDGNTNYVDSVKGRFTISQDNSKNTVYLQMNSLRAEDTAMYYCAAGAYCGRLLLWIGNYAYWGQGTLVTVSS
notes: as for B1
no binding (tested: about 300 nM): all assays above

B3: AS78117VH4-hIgG1Fc (Fc fusion)
chain: EVQLVESGGGLVQPGGSLRLSCIVSRYTYATYSMAWFRQAPGKGLEGVSGLDSVGATGYAESVKGRFTISRDNSKNTLYLQMNSLRAEDTAVYYCVVDPASAKVTYGSWSTPSYAYWGQGTLVTVSS
notes: as for B1
no binding (tested: about 300 nM): all assays above
